B1: N-terminally His6-tagged NusA^AR2 (domain or fragment)
chain: DNKPADDLLNLEGVDRDLAFKLAARGVCTLEDLAEQGIDDLADIEGLTDEKAGALIMAARNICWFGDEA

Key:
Experiment in all cases: SPR
[1] = biological target: SuhB^K108A (E. coli, UniProt P0ADG4 1-267, K108A)
[2] = biological target: SuhB^KL251/254AA (E. coli, UniProt P0ADG4 1-267, KL251/254AA | KL251/254AA)
[3] = biological target: B1

Binder	koff [1] [s⁻¹]	koff [2] [s⁻¹]	koff [3] [s⁻¹]
B1	0.0498	0.341	–
SuhB (inositol mono-phosphatase SuhB), wild type (natural protein) MHPMLNIAVRAARKAGNLIAKNYETPDAVEASQKGSNDFVTNVDKAAEAVIIDTIRKSYPQHTIITEESGELEGTDQDVQWVIDPLDGTTNFIKRLPHFAVSIAVRIKGRTEVAVVYDPMRNELFTATRGQGAQLNGYRLRGSTARDLDGTILATGFPFKAKQYATTYINIVGKLFNECADFRRTGSAALDLAYVAAGRVDGFFEIGLRPWDFAAGELLVREAGGIVSDFTGGHNYMLTGNIVAGNPRVVKAMLANMRDELSDALKR	–	–	0.0555

— PMC6614801 (2019)
